# IntAct's records for PubMed 18292755
# B1: Autoimmune regulator (Homo sapiens), O43918 (parent)
# chain: MATDAALRRLLRLHRTEIAVAVDSAFPLLHALADHDVVPEDKFQETLHLKEKEGCPQAFHALLSWLLTQDSTAILDFWRVLFKDYNLERYGRLQPILDSFPKDVDLSQPRKGRKPPAVPKALVPPPRLPTKRKASEEARAAAPAALTPRGTASPGSQLKAKPPKKPESSAEQQRLPLGNGIQTMSASVQRAVAMSSGDVPGARGAVEGILIQQVFESGGSKKCIQVGGEFYTPSKFEDSGSGKNKARSSSGPKPLVRAKGAQGAAPGGGEARLGQQGSVPAPLALPSDPQLHQKNEDECAVCRDGGELICCDGCPRAFHLACLSPPLREIPSGTWRCSSCLQATVQEVQPRAEEPRPQEPPVETPLPPGLRSAGEEVRGPPGEPLAGMDTTLVYKHLPAPPSAAPLPGLDSSALHPLLCVGPEGQQNLAPGARCGVCGDGTDVLRCTHCAAAFHWRCHFPAGTSRPGTGLRCRSCSGDVTPAPVEGVLAPSPARLAPGPAKDDTASHEPALHRDDLESLLSEHTFDGILQWAIQSMARPAAPFPS
# Variants of: B1
# Settings: with h31_human H3C1, P68431
row,effect of a mutation on the interaction,Variant
1,decreasing interaction,V301M

# Variants of: B1
# Settings: with h31_human H3C1, P68431
# Remark: another data set of the same source
row,effect of a mutation on the interaction,Variant
1,disrupting interaction,D312A

# Variants of: B1
# Settings: with h31_human H3C1, P68431
# Remark: another data set of the same source
row,effect of a mutation on the interaction,Variant
1,disrupting interaction,C311Y

# Variants of: B1
# Settings: with h31_human H3C1, P68431
# Remark: another data set of the same source
row,effect of a mutation on the interaction,Variant
1,disrupting interaction,D297A

# Variants of: B1
# Settings: with h31_human H3C1, P68431
# Remark: another data set of the same source
row,effect of a mutation on the interaction,Variant
1,decreasing interaction,D297A
